Reference: patent publication US12329814B2, “Combination of a substance modulating tumor immune microenvironment and immunotherapy for the treatment of cancer” (Boostimmune, Inc., priority 2022, dated 2025)
One block for each molecule: values may come before it.

Tests used:
extracellular TCTP = molecular target: T1, extracellular TCTP (Mus musculus, UniProt P63028); assay: Cxcl1 mRNA in peritoneal exudate cells stimulated with SL4 conditioned supernatant (RT-qPCR); assay type: cell-based; details: PECs stimulated 2 hours with conditioned supernatant of SL4 cells containing antibody, vs control IgG; FIG. 6A
T1 construct: stimulated with conditioned supernatant of SL4 cells containing antibody 55F3 or control IgG; endogenous in cells; host or cells: SL4 mouse colon carcinoma cells (conditioned supernatant), applied to mouse peritoneal exudate cells
T1 sequence (P63028 1-172): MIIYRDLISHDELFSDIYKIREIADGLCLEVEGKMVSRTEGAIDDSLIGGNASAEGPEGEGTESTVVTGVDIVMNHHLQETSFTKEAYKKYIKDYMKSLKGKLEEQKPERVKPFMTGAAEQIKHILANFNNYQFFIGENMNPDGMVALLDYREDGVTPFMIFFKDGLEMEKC
Procedure: (§1) Peritoneal exudate cells (PECs) (2×10^5 cells) were stimulated with conditioned supernatant of SL4 cells containing antibody 55F3 or control IgG, and after 2 hours of stimulation, Cxcl1 mRNA levels were determined by RT-qPCR. As a result of blockade of extracellular TCTP with antibody 55F3, the expression of Cxcl1 mRNA was suppressed (FIG. 6A). Subsequently, SL4 cells were transplanted into C57BL/6 mice via subcutaneous injection, and 55F3 or control IgG (200 μg/mouse) was then intraperitoneally administered to the mice every other day, starting from Day 1 after the transplantation, and the volume of the tumor was measured. As a result, the proliferation speed of SL4 tumor cells was decreased by administration of 55F3 (FIG. 6B), and the amount of PMN-MDSCs in the TIME was decreased (FIG. 6C).

SL4 tumor cells = assay: SL4 subcutaneous tumor in C57BL/6 mice treated with anti-TCTP antibody; assay type: in vivo; details: 200 μg/mouse intraperitoneally every other day from Day 1, vs control IgG
Procedure: as §1

[1] = tested on: SL4 TCTP KO+hTCTP tumor cells; assay: TCTP KI SL4 (TCTP KO+hTCTP) subcutaneous tumor in C57BL/6 mice treated with anti-TCTP antibodies; assay type: in vivo; details: 100 μg intraperitoneally on days 1, 4, 8, 11, vs PBS; FIG. 7
Procedure: HEK293Ta cells (3×10^6 cells) were transfected with pCSII-EF-MCS-IRES2-Venus-hTCTP lentiviral expression vector and its helper vectors (pMDLg/p.RRE and pCMV-VSV-G-RSV-Rev). After 48 hours of the transfection, culture supernatants were collected and filtered (0.45 μm; Millipore). TCTP KO SL4 cells from Example 1 (1×10^6 cells) were infected using the supernatant. After infection, GFP-positive human TCTP-expressing TCTP KO SL4 cells (hereafter TCTP KI SL4 cells) were sorted using FACSMelody cell sorter. TCTP KI SL4 cells (2×10^5 cells/100 μL PBS), TCTP KO SL4 cells (2×10^5 cells/100 μL PBS), or parental SL4 cells (2×10^5 cells/100 μL PBS) were inoculated into C57BL/6 mice. After cell inoculation, tumor volumes were measured over time.
TCTP KI SL4 cells (TCTP KO+hTCTP; 5×10^5 cells in 100 μL PBS) from example 3 were subcutaneously inoculated into C57BL/6 mice (Day 0). Anti-TCTP (100 μg in 100 μL PBS) antibodies were administered intraperitoneally into the mice on days 1, 4, 8, and 11. As a control, 100 μL of PBS was administered. Tumor size was measured on days 3, 6, 9, and 11. As a result, the proliferation speed of SL4 TCTP KO+hTCTP tumor cells was decreased by administration of 55F3 or 1-2-4 (FIG. 7).

B16F10 cells = assay: B16F10 tumor treated with anti-TCTP antibody in combination with anti-PD-1 antibody; assay type: in vivo, C57BL/6 mice; details: anti-TCTP 100 μg i.p. days 1, 4, 8, 11, 15, 18, 22 plus anti-PD-1 (BioXCell) 100 μg i.v. day 10, compared with checkpoint antibody alone, FIGS. 9A and 9B
Procedure: The influence of the combination of anti-TCTP antibodies with an anti-PD-1 antibody on tumor suppression was also studied. B16F10 (1×10^5 cells in 50 μL PBS) cells were subcutaneously inoculated into C57BL/6 mice (Day 1). An anti-PD-1 antibody (BioXCell; 100 μg in 100 μL PBS) was administered intravenously ten days after the inoculation, and anti-TCTP antibodies 55F3 and 1-2-4 (each 100 μg in 100 μL PBS) were administered intraperitoneally in the mice on days 1, 4, 8, 11, 15, 18, and 22. As a result, the effect of suppressing tumor proliferation is improved by the combined administration of an anti-TCTP antibody and a PD-1 or CTLA-4 antagonist antibody, compared with the case of single administration of a PD-1 or CTLA-4 antagonist antibody alone (FIGS. 9A and 9B).

SL4 cells = assay: SL4 tumor treated with anti-TCTP antibody in combination with anti-PD-1 antibody; assay type: in vivo, C57BL/6 mice; details: 55F3 i.p. every day from Day 1 plus anti-PD-1 monoclonal antibody (BioLegend) day 10, compared with PD-1 antagonist antibody alone, FIG. 10
Procedure: This synergistic effect was also confirmed in the experiment using SL4 cells. SL4 cells were transplanted into C57BL/6 mice via subcutaneous injection, and thereafter, antibody 55F3 was intraperitoneally […] into the mice every day, starting from Day 1 after the transplantation. Ten days after the transplantation, an anti-PD-1 monoclonal antibody (BioLegend) was administered to the mice, and the tumor volume was then measured. As a result, it was confirmed that the effect of suppressing tumor proliferation is improved by the combined administration of an anti-TCTP antibody and a PD-1 antagonist antibody, compared with the case of single administration of a PD-1 antagonist antibody alone (FIG. 10).

B16F10 tumors = assay: Flow cytometry of tumor-infiltrating immune cells, B16F10 tumors, anti-TCTP and anti-PD-1 antibodies; assay type: in vivo, C57BL/6 mice; details: B16F10, 12 days; 55F3 200 μg i.p. every 2 days and/or anti-PD-1 RMP1-14 10 mg/kg i.p. days 0, 3, 7, 10, 14; FIG. 11C
Procedure: (§2) Effect of the combination of anti-TCTP antibody and anti-PD-1 antibody on T cells and NK cells in the TIME was also studied. Tumor-infiltrating immune cells were collected from B16F10 and MC38 tumors treated with anti-TCTP antibody and/or anti-PD-1 antibody and were then analyzed by flow cytometry. B16F10 cells (5×10^5 cells) or MC38 cells (3×10^5 cells) were transplanted subcutaneously into C57BL/6 mice. Anti-PD-1 antibody RMP1-14 (BioXCell; 10 mg/kg) was administered intraperitoneally on days 0, 3, 7, 10, 14 after the inoculation, and anti-TCTP antibody 55F3 (200 μg in 200 μL PBS) was administered intraperitoneally in the mice every 2 days after the inoculation. After 15 days (MC38) or 12 days (B16F10) of transplantation, single cell suspensions were prepared from tumors and subjected to flow cytometry analysis.

MC38 tumors = assay: Flow cytometry of tumor-infiltrating immune cells, MC38 tumors, anti-TCTP and anti-PD-1 antibodies; assay type: in vivo, C57BL/6 mice; details: MC38, 15 days; 55F3 200 μg i.p. every 2 days and/or anti-PD-1 RMP1-14 10 mg/kg i.p. days 0, 3, 7, 10, 14; FIG. 11C
Procedure: as §2

expression of Cxcl1 mRNA (extracellular TCTP): suppressed
B1: 55F3: Mouse monoclonal anti-TCTP antibody; VH SEQ ID NO: 25, VL SEQ ID NO: 29; CDRs SEQ ID NO: 1-6 (antibody, listed as Mus musculus)
VH: MRVLILLWLFTAFPGILSDVQLQESGPGLVKPSQSLSLTCTATGYSIASDYAWNWIRQFPGNKLEWMGYINYSGSTGYNPSLKSRISITRDTSKNQFFLQLNSVTTEDTATYYCARFEAGYWGQGTTLTVSSAKTTPPSVYPLAPGSAAQTNSMVTLGCLVKGYFPEPVT
VL: MDMRTPAQFLGILLLWFPGIKCDIKMTQSPSSMSASLGERVTITCKASQDINRYLSWFQQKPGKSPKTLIYRANRLVDGVPSRFSGSGSGQDYSLTISSLEYGDMGIYYCLQYNEFPLTFGAGTKLELKRADAAPTVSIFPPSSEQLTSGGASVVCFLN
proliferation speed of SL4 tumor cells (tumor volume) (SL4 tumor cells; FIG. 6B): decreased
amount of PMN-MDSCs in the TIME (SL4 tumor cells; SL4 tumor, FIG. 6C): decreased
proliferation speed of SL4 TCTP KO+hTCTP tumor cells (tumor size) [1]: decreased
effect of suppressing tumor proliferation, combined administration with anti-PD-1 antibody (B16F10 cells): improved
effect of suppressing tumor proliferation, combined administration with anti-PD-1 antibody (SL4 cells): improved
CD8+ cells in tumor (abundance ratio) (B16F10 tumors): increased
CD8+ cells in tumor (abundance ratio) (MC38 tumors): increased

B2: 1-2-4: Human monoclonal anti-TCTP antibody from CAMOUSE; VH SEQ ID NO: 28, VL SEQ ID NO: 32; CDRs SEQ ID NO: 19-24 (antibody, V domains shown)
VH: MDWTWRILFLVAAATGAHSQVQLVQSGAEVKKPGASVKVSCKASGYTFFSYAMHWVRQAPGQRLEWMGWINAGNGNTKYSQKFQDRVTITRDTSATTAYMELSSLRSEDTAVYYCASWVFDYWGQGTPVTVSS
VL: MRLLAQLLGLLMLWVPGSSGDIVMTQTPLSSLVTLGQPASISCRSSQSLVHRDGNTYLSWLQQRPGQPPRLLIYKISNRFFGVPDRFSGSGAGTDFTLKISRVEAEDVGVYYCMQATQFPHTFGQGTKLEIK
modifications: Variable region of antibody
proliferation speed of SL4 TCTP KO+hTCTP tumor cells (tumor size) [1]: decreased
effect of suppressing tumor proliferation, combined administration with anti-PD-1 antibody (B16F10 cells): improved
